Laboratory results: patent US20220042996A1, “COMPOSITIONS AND METHODS RELATED TO LATROPHILINS AS BIOMARKERS FOR HAEMATOPOIETIC CELL CANCER” (priority 2015, published 2022)
Entries after “also recorded” stand apart in the source; their conditions may differ.

B1: LTX (protein)
chain: EGEDLTLEEKAEICSELELQQKYVDIASNIIGDLSSLPIAGKIAGTIAAAAMTATHVASGRLDIEQTLLGCSDLPFDQIKEVLENRFNEIDRKLDSHSAALEEITKLVEKSISVVEKTRKQMNKRFDEVMKSIQDAKVSPIISKINNFARYFDTEKERIRGLKLNDYILKLEEPNGILLHFKESRTPTDDSLQAPLFSIIEEGYAVPKSIDDELAFKVLYALLYGTQTYVSVMFFLLEQYSFLANHYYEKGYLEKYDEYFNSLNNVFLDFKSSLVGTGTSNNEGLLDRVLQVLMTVKNSEFLGLEKNGVDEMLNEKINLFNKIKEEIEGKQKMTLSETPENFAQISFDKDITTPIGDWRDGREVRYAVQYASETLFSKISHWSDPVSVREKACPTLRMPVDQTRRNVLVFRKFDSSKPQLVGEITPYLSNFIDIDRDLYNAASNPDSAVGFKEFTKLNYDGANIRATFDHGRTVFHAAAKSGNDKIMFGLTFLAKSTELNQPDKKGYTPIHVAADSGNAGIVNLLIQRGVSINSKTYHFLQTPLHLAAQRGFVTTFQRLMESPEININERDKDGFTPLHYAIRGGERILEAFLNQISIDVNAKSNTGLTPFHLAIIKNDWPVASTLLGSKKVDINAVDENNITALHYAAILGYLETTKQLINLKEINANVVSSPGLLSALHYAILYKHDDVASFLMRSSNVNVNLKALGGITPLHLAVIQGRKQILSLMFDIGVNIEQKTDEKYTPLHLAAMSKYPELIQILLDQGSNFEAKTNSGATPLHLATFKGKSQAALILLNNEVNWRDTDENGQMPIHGAAMTGLLDVAQAIISIDATVVDIEDKNSDTPLNLAAQNSHIDVIKYFIDQGADINTRNKKGLAPLLAFSKKGNLDMVKYLFDKNANVYIADNDGMNFFYYAVQNGHLNIVKYAMSEKDKFEWSNTDNNRRDECPNEECAISHFAVCDAVQFDRIEIVKYFVGTLGNFAICGPLHQAARYGHLDIVKYLVEEEFLSVDGSKTDTPLCYASENGHFTVVQYLVSNGAKVNHDCGNGMTAIDKAITKNHLQVVQFLAANGVDFRRKNSRGTTPFLTAVAENALHIAEYLIREKRQDININEQNVDKDTALHLAVYYKNLQMIKLLIKYGIDVTIRNAYDKTALDIAIDAKFSNIVEYLKTKSGKFRR

Tests used:
Assay type in all cases: cell-based
mTOR = test: Phospho-S2448 mTOR ELISA in primary human AML cells; conditions: AML-PB001F cells; for mTOR activation: 24 h
Method: Phosphorylation of mTOR was monitored using ELISA assays as recently described (Yasinska I. M. et al (supra); Abooali M. et al (2014) Sci. Rep. 4 6307; Prokhorov A. et al (supra)). Briefly, ELISA plates were coated with mouse anti-mTOR antibodies and blocked with 2% BSA. Cell lysates were then added to the wells and kept at room temperature for at least 2 h (under constant agitation). After extensive washing with TBST buffer (Tris-Buffered Saline and Tween 20), […] mTOR antibody was added and plates were incubated for at least 2 h at room temperature with constant agitation. Plates were then washed with TBST buffer and incubated with 1:1000 Horse Radish Peroxidase-labelled goat anti-rabbit IgG in TBST buffer. After extensive washing with TBST, bound secondary antibodies were then detected by the peroxidase reaction (ortho-phenylenediamine/H2O2).
(§1) Primary human AML mononuclear cells (AML-PB001 F, newly diagnosed/untreated) were purchased from AllCells (Alameda, Calif., USA) and handled in accordance with manufacturer's instructions.
(§2) Experiments were carried out to ascertain whether or not LPHN 1 and LPHN 2 are expressed and function in primary human AML cells. AML-PB001 F primary human mononuclear blasts were used and exposed for 24 h to 1 μg/ml LPS, 500 pM LTX or a combination of these ligands.
(§3) To analyse LPHN1/2 expression levels in AML-PB001F cells, the cells were exposed to mTOR activators (1 μg/ml LPS, 0.1 μg/ml SCF or 2 μg/ml anti-Tim-3 antibody) for 4 h.

[1] = test system: AML-PB001F primary human AML cells; test: LPHN1/2 protein levels by Western blot in primary human AML cells; conditions: 4 h, 1 μg/ml LPS, 0.1 μg/ml SCF or 2 μg/ml anti-Tim-3 antibody
Method: (§4) Levels of LPHN 1 and LPHN 2, total and phospho-T389 p70 S6K1 were determined by Western blot analysis and compared to β-actin in order to determine equal protein loading, as described by Yasinska I. M. et al (Cell. Mol. Life Sci. (2014) 71 699-710). Li-Cor goat secondary antibodies, conjugated with fluorescent dyes, were used according to the manufacturer's protocol to visualise the proteins of interest using a Li-Cor Odyssey imaging system. Western blot data were analysed quantitatively using Odyssey software and values were normalised against respective β-actin bands.
as §1, §3

[2] = test system: primary healthy human leukocytes; test: Latrophilin protein expression by Western blot in primary healthy human leukocytes; conditions: primary leucocytes from healthy donors, 4 or 24 h exposure
Method: Primary AML-PB001F cells were exposed for 4 h (A) and healthy human leukocytes for 4 h (B) or 24 h (C) to indicated concentrations of LPS, SCF and anti-Tim-3. Following cell lysis, latrophilin protein levels were analysed by Western blot. Phospho-S2448 mTOR was measured by ELISA. Furthermore, non-treated THP-1 cells, primary human AML cells and primary healthy human leukocytes, as well as those stimulated for 24 h with 1 μg/ml LPS were subjected to quantitative real time polymerase chain reaction qRT-PCR (D). Images show one representative result of at least four experiments, which gave similar results. Data are mean values±SD (n=4). *-p<0.05; **-p<0.01.
as §4, with “bands. […]” for “bands.”

U937 human AML cells = test: IL-6 release by ELISA in U937 cells; conditions: 24 h, 500 pM LTX in combination with 1 μg/ml LPS
Method: (§5) THP-1 and U937 human leukaemia monocytic macrophages were obtained from the European Collection of Cell Cultures (Salisbury, UK). Cells were cultured in RPMI 1640 media supplemented with 10% foetal calf serum, penicillin (50 IU/ml) and streptomycin sulphate (50 μg/ml).
(§6) Concentrations of IL-6 released into the cell culture media were analysed by ELISA (R&D Systems assay kit) according to the manufacturers protocol.
(§7) Expression of LPHN 1 and LPHN 2 in human AML cell lines—U937 and THP-1—was investigated. Cells were stimulated for 24 h with 1 μg/ml LPS, 500 pM LTX or a combination of these ligands. LPS is a pathogen-associated molecular pattern shared by Gram-negative bacteria and is recognised by the Toll-like receptor 4 (TLR4), which is highly expressed by human myeloid cells. Importantly, LPS was chosen because TLR4 may be targeted by endogenous ligands (like proteins released by dysfunctional mitochondria) to promote expression/release of IL-6 and other important cytokines/growth factors required for leukaemia cell survival.

THP-1 human AML cells = test: IL-6 release by ELISA in THP-1 cells; conditions: 24 h, 500 pM LTX in combination with 1 μg/ml LPS
Method: as §5, §6, §7

[3] = test system: AML-PB001F primary human AML cells; test: IL-6 release by ELISA in primary human AML cells; conditions: 24 h
Method: as §6, §1, §2

[4] = 500 pM LTX in combination with 1 μg/ml LPS
[5] = 1 μg/ml LPS alone or 500 pM LTX alone

Row | Molecule | phosphorylation of S2448 in mTOR (mTOR activation) (mTOR; 4 h, 1 μg/ml LPS, 0.1 μg/ml SCF or 2 μg/ml anti-Tim-3 antibody) | LPHN1/2 expression [1] | LPHN2 expression [1] | latrophilin expression [2] | LPS-induced IL-6 exocytosis (U937 human AML cells) | LPS-induced IL-6 exocytosis (THP-1 human AML cells) | IL-6 exocytosis [3, 4] | IL-6 release [3, 5] | mTOR activation (mTOR; [4]) | mTOR activation (mTOR; [5])
1 | SCF: Human Stem Cell Factor protein produced in E. coli; binds Kit (CD117) | significantly increased; also recorded: strongest effect | significantly up-regulated | significantly up-regulated | not inducible |  |  |  |  |  | 
2 | B1 |  |  |  |  | highly up-regulated | highly up-regulated | significantly up-regulated | did not influence | significantly up-regulated | did not influence
